Assay results published in article PMC4988983.

What was measured:
[1] = molecular target: NADPH-thioredoxin reductase C from Anabaena sp. PCC 7120 (Anabaena sp. PCC 7120 (endogenous in Anabaena cells)); test: SEC; soluble extracts (200 µg total protein) of untreated Anabaena cells (0 h) on Superdex 200 HR 10/30, 50 mM KH2PO4 pH 7.1, 150 mM NaCl, 0.5 ml/min; fractions read by Western blot
[2] = molecular target: 2-Cys peroxiredoxin from Anabaena sp. PCC 7120 (Anabaena sp. PCC 7120 (endogenous in Anabaena cells)); test: non-reducing SDS-PAGE with Western blot; soluble extracts of Anabaena WT and ΔntrC cells treated with H2O2, methyl viologen or high light; dimer and monomer bands of 2-Cys Prx
[3] = molecular target: 2-Cys peroxiredoxin from Anabaena sp. PCC 7120 (Anabaena sp. PCC 7120 (endogenous in Anabaena cells)); test: SEC; soluble extracts (200 µg total protein) of untreated Anabaena cells (0 h) on Superdex 200 HR 10/30, 50 mM KH2PO4 pH 7.1, 150 mM NaCl, 0.5 ml/min; fractions read by Western blot

Row | stoichiometry N [1] | stoichiometry N [2] | stoichiometry N [3] | Substance
1 | 2 |  |  | NADPH-thioredoxin reductase C from Anabaena sp. PCC 7120 (enzyme)
2 |  | 2 | 2 | 2-Cys peroxiredoxin from Anabaena sp. PCC 7120 (enzyme)
